In patent WO2009147196A1 (dated 2009):

Molecular target: Rev of the HIV-1 NL4.3 molecular clone (HIV-1)
Assay: cell-based or functional assay

B1: Nb_190 expressed intracellularly (pcDNA3.1-Nb_190; HIV-1 NL4.3-Nb_190) (VHH)
VHH: QVQLQESGGGLVQAGGSLRLSCAASGSIFSINTMGWYRQAPGKQRELVAFATSGGSTNYPDSVKGRFTISRDNVKNTVYLQMNSLKPEDTAVYYCNIDGFLGSLYKDYWSQGTQVTVSS
virus production (p24) from the HIV-1 NL4.3-Nb_190 clone in HEK 293T cells: 300 fold reduction
